The target of experiment [1] is HLA-A*24 with C-terminal His tag (A*24-His Tg) (human). Kind of experiment: SPR. For orientation: SPR reads the build-up and loss of mass on a sensor chip optically.
Experiment [2] deals with HLA-A*33 with C-terminal His tag (A*33-His Tg) (human). Kind of experiment: SPR.

As for “Toxoplasma antigenic peptide SAG2C, wild type”, the SPR response at 200 µM was determined as 15 RU in experiment [1] and 150 RU in experiment [2].
